{"source": "the RNAGym collection of RNA variant scans (doi:10.1073/pnas.2313332121)", "parents": {"B1": {"name": "TPR 5TU (parent)", "chain": "GGAUCUUCUCGAUCUAACAAAAAAGACAAAUCUGCCACAAAGCUUGAGAGCAUCUUCGGAUGCAGAGGCGGCAGCCUUCGGUGGCGCGAUAGCGCCAACGUUCUCAACUAUGACACGCAAAACGCGUGCUCCGUUGAAUGGAGUUUAUCAUG"}}, "note": "Fewer inactive variants are shown than the library holds."}
{"variants_of": "B1", "assay": "polymerase ribozyme fitness, log enrichment relative to wild type (log ratio); higher = more active; in vitro selection for triplet polymerase activity", "summary_of_the_method": "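For each subunit of a heterodimeric triplet polymerase ribozyme, a mutant library was built by PCR and transcribed, then taken through a single in vitro selection round in triplicate. Selection involved annealing to a biotinylated primer, the partner subunit and triplets, incubation frozen at −7 °C, gel excision of extended constructs, capture on streptavidin beads and RT-PCR. Genotypes were retained after Illumina sequencing of inputs and outputs only with ≥10 input reads and ≥1 read in each output. Fitness is defined as the logarithm of a genotype's enrichment relative to wild-type enrichment, using inverse-variance-weighted averages across replicates, with the logarithm taken to base 2.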"}
{"variant": "GGAUCUUCUCGAUCUAACAAAAAAGACAAAUCUGCCACAAAGCUUGAGAGCAUCUUCGGAUGCAGAGGCGGCAGCCUUCGGUGGCGCGAUAGCACCAACGUUCUCAACUAUGUCACGCAUAACGCGUGCUCCGUUGAAUGGAGUUUAUCAUG", "note": "[G94A A113U A120U]", "polymerase ribozyme fitness (log ratio)": -1.56}
{"variant": "GGAUCUUCUCGAUCUAACAAAAAAGACAAAUCUGCCACAAAGCUUGAGAGCAUCUUCGGAUGCAGAGGCGGCAGCCUUCGGUGGCGCGAUAGCACCGACGUUCUCAACUAUGACACGCAAAACGCGUGCUCCGUUGAAUGGAGUUUAUCAUG", "note": "[G94A A97G]", "polymerase ribozyme fitness (log ratio)": -2.19}
{"variant": "GGAUCUUCUCGAUCUAACAAAAAAGACAAAUCUGCCACAAAGCUUGAGAGCAUCUUCGGAUGCAGAGGCGGCAGCCUUCGGUGGCGCGAUAGCAGCAACGUUCUCAACUAUGACACGCAAAACGCGUGCUCCAGUGUAUGGAGUUUAUCAUG", "note": "[G94A C95G G133A U134G A137U]", "polymerase ribozyme fitness (log ratio)": -4.11}
{"variant": "GGAUCUUCUCGAUCUAACAAAAAAGACAAAUCUGCCACAAAGCUUGAGAGCAUCUUCGGAUGCAGAGGCGGCAGCCUUCGGUGGCGCGAUAGCCCCAACGUUCUCAACUAUGACACGCAAAACGCGUGCUCCGUUGAAUGGAGUUUAUCAUG", "note": "[G94C]", "polymerase ribozyme fitness (log ratio)": -0.474}
{"variant": "GGAUCUUCUCGAUCUAACAAAAAAGACAAAUCUGCCACAAAGCUUGAGAGCAUCUUCGGAUGCAGAGGCGGCAGCCUUCGGUGGCGCGAUAGCACCAACGUUCUCAACUAUGACACGCAAAACGCGUGCUCCGUUGAAUGGAGUUUAUCAUG", "note": "[G94A]", "polymerase ribozyme fitness (log ratio)": -0.622}
{"variant": "GGAUCUUCUCGAUCUAACAAAAAAGACAAAUCUGCCACAAAGCUUGAGAGCAUCUUCGGAUGCAGAGGCGGCAGCCUUCGGUGGCGCGAUAGUGCCAACGUUCUCAACUAUGACACGCAAAACGCGUGCUCCGUUGAAUGGAGUUUAUCAAG", "note": "[C93U U151A]", "polymerase ribozyme fitness (log ratio)": "≤ -4.2"}
{"variant": "GGAUCUUCUCGAUCUAACAAAAAAGACAAAUCUGCCACAAAGCUUGAGAGCAUCUUCGGAUGCAGAGGCGGCAGCCUUCGGUGGCGCGAUAGCACCAACGUUCUCAACUAUGACACGCACAACGCGUGCUCCGUUGAAUGGAGUUUAUCAUG", "note": "[G94A A120C]", "polymerase ribozyme fitness (log ratio)": -0.523}
{"variant": "GGAUCUUCUCGAUCUAACAAAAAAGACAAAUCUGCCACAAAGCUUGAGAGCAUCUUCGGAUGCAGAGGCGGCAGCCUUCGGUGGCGCGAUAGCACCAACGCUCUCAACUAUGACACGCAAAACGCGUGCUCCGUUCGAUGGAGUUUAUCAAG", "note": "[G94A U101C G136C A137G U151A]", "polymerase ribozyme fitness (log ratio)": "≤ -4.2"}
{"variant": "GGAUCUUCUCGAUCUAACAAAAAAGACAAAUCUGCCACAAAGCUUGAGAGCAUCUUCGGAUGCAGAGGCGGCAGCCUUCGGUGGCGCGAUAGCACCAACGCUCUCAACUAUGACACGCAAAACGCGUGCUCCGUUGAAUGGAGUUUAUCAUG", "note": "[G94A U101C]", "polymerase ribozyme fitness (log ratio)": -0.823}
{"variant": "GGAUCUUCUCGAUCUAACAAAAAAGACAAAUCUGCCACAAAGCUUGAGAGCAUCUUCGGAUGCAGAGGCGGCAGCCUUCGGUGGCGCGAUAGCACCAACGUUCUCAACUAUGACUCGCAAAACGCGUGCUCCGUUGAAUGGAGUUUAUCAUG", "note": "[G94A A115U]", "polymerase ribozyme fitness (log ratio)": -1.76}
{"variant": "GGAUCUUCUCGAUCUAACAAAAAAGACAAAUCUGCCACAAAGCUUGAGAGCAUCUUCGGAUGCAGAGGCGGCAGCCUUCGGUGGCGCGAUAGCACCAACGUUCUCAACUAUGACACGCAAAACGCGUGCUUCGUUGAAUGGAGUUUAUCAUG", "note": "[G94A C131U]", "polymerase ribozyme fitness (log ratio)": 0.309}
{"variant": "GGAUCUUCUCGAUCUAACAAAAAAGACAAAUCUGCCACAAAGCUUGAGAGCAUCUUCGGAUGCAGAGGCGGCAGCCUUCGGUGGCGCGAUAGCACCAACGGUCUCAACUAUGACACGCAAAACGCGUGCUCCGUUGAAUGGAGUUUAACAUG", "note": "[G94A U101G U148A]", "polymerase ribozyme fitness (log ratio)": -4.03}
{"variant": "GGAUCUUCUCGAUCUAACAAAAAAGACAAAUCUGCCACAAAGCUUGAGAGCAUCUUCGGAUGCAGAGGCGGCAGCCUUCGGUGGCGCGAUAGCACCAACGUUCUCAACUAUGACACGCAAAACGCGGGCUCCGUUGAAUGGAGUUGAUCAUG", "note": "[G94A U127G U146G]", "polymerase ribozyme fitness (log ratio)": -3.33}
{"variant": "GGAUCUUCUCGAUCUAACAAAAAAGACAAAUCUGCCACAAAGCUUGAGAGCAUCUUCGGAUGCAGAGGCGGCAGCCUUCGGUGGCGCGAUAGCACCAACGUUCUCAACUAUGACACCCAAAACGCGUGCUCCGUUGGAUGGAGUUUAUCAUG", "note": "[G94A G117C A137G]", "polymerase ribozyme fitness (log ratio)": -3.09}
{"variant": "GGAUCUUCUCGAUCUAACAAAAAAGACAAAUCUGCCACAAAGCUUGAGAGCAUCUUCGGAUGCAGAGGCGGCAGCCUUCGGUGGCGCGAUAGCACCAACGUUCUCAACUAUGACACGCAAAACGCGUGCUCCGUUGAAUGGAGUUUAUUAUG", "note": "[G94A C149U]", "polymerase ribozyme fitness (log ratio)": -1.24}
{"variant": "GGAUCUUCUCGAUCUAACAAAAAAGACAAAUCUGCCACAAAGCUUGAGAGCAUCUUCGGAUGCAGAGGCGGCAGCCUUCGGUGGCGCGAUAGCACCAACGUUCUCAACUAUGACACGCAAAACGCGUGCUCCGUUCAAUGGAGUUUAUCAUG", "note": "[G94A G136C]", "polymerase ribozyme fitness (log ratio)": -3.98}
{"variant": "GGAUCUUCUCGAUCUAACAAAAAAGACAAAUCUGCCACAAAGCUUGAGAGCAUCUUCGGAUGCAGAGGCGGCAGCCUUCGGUGGCGCGAUAGCACCUACGUUCUCAACUAUGACACGCAAAACGGGUGCUCCGUUGAAUGGAGUUUAUCAUG", "note": "[G94A A97U C125G]", "polymerase ribozyme fitness (log ratio)": -2.14}
{"variant": "GGAUCUUCUCGAUCUAACAAAAAAGACAAAUCUGCCACAAAGCUUGAGAGCAUCUUCGGAUGCAGAGGCGGCAGCCUUCGGUGGCGCGAUAGCACCAACGUUCUCCACUAUGACACGCAAAACGCGUGCUCCGUUAAAUGGAGUUUAUCAUG", "note": "[G94A A106C G136A]", "polymerase ribozyme fitness (log ratio)": -0.404}
{"variant": "GGAUCUUCUCGAUCUAACAAAAAAGACAAAUCUGCCACAAAGCUUGAGAGCAUCUUCGGAUGCAGAGGCGGCAGCCUUCGGUGGCGCGAUAGCCCCUACGUUCUCAACUAUGACACGCAAAACGCGUGCUCCGUUUAAUGGAGUUUAUCAUG", "note": "[G94C A97U G136U]", "polymerase ribozyme fitness (log ratio)": -3.38}
